Test results as given in publication PMC9482650, “Quantitative fragmentomics allow affinity mapping of interactomes” (Nature Communications, 2022).

T1: SIPA1L2, Q9P2F8
T1 sequence (Q9P2F8 945-1036, limits assumed, looked up): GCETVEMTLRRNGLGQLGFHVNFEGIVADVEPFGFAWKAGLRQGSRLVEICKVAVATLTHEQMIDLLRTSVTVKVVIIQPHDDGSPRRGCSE

T2: PDZD7_3, Q9H5P4
T2 sequence (Q9H5P4 857-944, limits assumed, looked up): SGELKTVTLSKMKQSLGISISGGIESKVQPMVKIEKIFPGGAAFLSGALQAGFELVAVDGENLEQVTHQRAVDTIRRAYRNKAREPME

T3: HTRA3, P83110
T3 sequence (P83110 354-453, limits assumed, looked up): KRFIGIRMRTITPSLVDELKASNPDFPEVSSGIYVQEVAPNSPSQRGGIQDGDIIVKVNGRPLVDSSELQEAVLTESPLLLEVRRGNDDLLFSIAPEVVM

T4: FRMPD1, Q5SYB0
T4 sequence (Q5SYB0 52-145, limits assumed, looked up): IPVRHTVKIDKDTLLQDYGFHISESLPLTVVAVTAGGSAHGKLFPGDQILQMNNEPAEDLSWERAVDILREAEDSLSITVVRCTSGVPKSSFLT

T5: GRIP1_5, Q9Y3R0
T5 sequence (Q9Y3R0 568-668, limits assumed, looked up): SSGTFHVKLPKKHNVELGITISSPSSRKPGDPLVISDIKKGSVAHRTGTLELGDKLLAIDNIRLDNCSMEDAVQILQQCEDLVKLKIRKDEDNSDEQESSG

T6: TJP3_3, O95049
T6 sequence (O95049 375-456, limits assumed, looked up): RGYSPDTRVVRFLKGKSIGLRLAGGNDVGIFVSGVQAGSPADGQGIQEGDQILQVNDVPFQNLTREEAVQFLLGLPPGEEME

T7: PDZD2_2, O15018
T7 sequence (O15018 329-429, limits assumed, looked up): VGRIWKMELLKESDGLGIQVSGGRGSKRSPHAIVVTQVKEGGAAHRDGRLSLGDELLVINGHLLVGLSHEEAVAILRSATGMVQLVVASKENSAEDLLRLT

T8: GRIP1_4, Q9Y3R0
T8 sequence (Q9Y3R0 467-571, limits assumed, looked up): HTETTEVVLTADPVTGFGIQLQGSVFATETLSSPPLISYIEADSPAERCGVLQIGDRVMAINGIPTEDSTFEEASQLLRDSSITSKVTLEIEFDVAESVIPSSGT

T9: SNTG2, Q9NY99
T9 sequence (Q9NY99 68-166, limits assumed, looked up): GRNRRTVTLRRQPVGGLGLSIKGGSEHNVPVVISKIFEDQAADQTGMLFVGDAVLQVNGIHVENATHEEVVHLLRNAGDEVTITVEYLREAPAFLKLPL

T10: APBA3_1, O96018
T10 sequence (O96018 389-490, limits assumed, looked up): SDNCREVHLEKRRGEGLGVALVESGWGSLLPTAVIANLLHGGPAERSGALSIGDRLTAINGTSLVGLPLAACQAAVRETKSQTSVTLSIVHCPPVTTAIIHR

T11: DLG3_2, Q92796
T11 sequence (Q92796 221-321, limits assumed, looked up): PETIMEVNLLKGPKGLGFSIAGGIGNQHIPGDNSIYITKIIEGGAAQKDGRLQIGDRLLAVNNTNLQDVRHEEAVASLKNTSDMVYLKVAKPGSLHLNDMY


molecular target: FRMPD4, Q14CM0; experiment: holdup assay; design: key: below the threshold = too weak to quantify, mostly under pKd 3.1 to 4; conditions: plain residues with an end cap or a label only (N-terminal biotin on a linker: ado-ado)
Sequence (Q14CM0 67-160): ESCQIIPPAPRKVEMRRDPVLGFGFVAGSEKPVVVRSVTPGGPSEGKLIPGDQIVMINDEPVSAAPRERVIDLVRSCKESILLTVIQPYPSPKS

| Binder | pKd |
| --- | --- |
| FVHPILQSAV [PRKCA, P17252] | below the threshold |

molecular target: T1, SIPA1L2, Q9P2F8; experiment: holdup assay; design: key: below the threshold = too weak to quantify, mostly under pKd 3.1 to 4; conditions: plain residues with an end cap or a label only (N-terminal biotin on a linker: ado-ado)

| Binder | pKd |
| --- | --- |
| FVHPILQSAV [PRKCA, P17252] | below the threshold |

molecular target: T2, PDZD7_3, Q9H5P4; experiment: holdup assay; design: key: below the threshold = too weak to quantify, mostly under pKd 3.1 to 4; conditions: plain residues with an end cap or a label only (N-terminal biotin on a linker: ado-ado)

| Binder | pKd |
| --- | --- |
| FVHPILQSAV [PRKCA, P17252] | 4.55 |

molecular target: GORASP1, Q9BQQ3; experiment: holdup assay; design: key: below the threshold = too weak to quantify, mostly under pKd 3.1 to 4; conditions: plain residues with an end cap or a label only (N-terminal biotin on a linker: ado-ado)
Sequence (Q9BQQ3 1-208): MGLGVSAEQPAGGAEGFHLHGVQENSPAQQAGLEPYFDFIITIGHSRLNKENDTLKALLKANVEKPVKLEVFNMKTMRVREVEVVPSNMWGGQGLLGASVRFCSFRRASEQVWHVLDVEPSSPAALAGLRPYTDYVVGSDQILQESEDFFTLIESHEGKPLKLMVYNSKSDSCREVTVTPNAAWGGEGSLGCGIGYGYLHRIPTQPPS

| Binder | pKd |
| --- | --- |
| FVHPILQSAV [PRKCA, P17252] | below the threshold |

molecular target: MAGI2_2, Q86UL8; experiment: holdup assay; design: key: below the threshold = too weak to quantify, mostly under pKd 3.1 to 4; conditions: plain residues with an end cap or a label only (N-terminal biotin on a linker: ado-ado)
Sequence (Q86UL8 410-522): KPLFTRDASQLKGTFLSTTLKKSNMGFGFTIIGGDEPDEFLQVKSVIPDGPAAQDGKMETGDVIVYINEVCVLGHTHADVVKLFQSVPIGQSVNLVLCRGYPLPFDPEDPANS

| Binder | pKd |
| --- | --- |
| FVHPILQSAV [PRKCA, P17252] | 3.9 |

molecular target: MAGI2_6, Q86UL8; experiment: holdup assay; design: key: below the threshold = too weak to quantify, mostly under pKd 3.1 to 4; conditions: plain residues with an end cap or a label only (N-terminal biotin on a linker: ado-ado)
Sequence (Q86UL8 1141-1229): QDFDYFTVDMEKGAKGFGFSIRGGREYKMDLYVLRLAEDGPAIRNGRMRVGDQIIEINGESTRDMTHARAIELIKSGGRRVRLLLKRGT

| Binder | pKd |
| --- | --- |
| FVHPILQSAV [PRKCA, P17252] | 3.66 |

molecular target: LNX1_2, Q8TBB1; experiment: holdup assay; design: key: below the threshold = too weak to quantify, mostly under pKd 3.1 to 4; conditions: plain residues with an end cap or a label only (N-terminal biotin on a linker: ado-ado)
Sequence (Q8TBB1 371-470): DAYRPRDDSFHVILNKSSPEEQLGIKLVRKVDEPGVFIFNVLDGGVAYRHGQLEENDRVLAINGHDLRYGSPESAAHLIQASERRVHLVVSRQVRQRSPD

| Binder | pKd |
| --- | --- |
| FVHPILQSAV [PRKCA, P17252] | below the threshold |

molecular target: Inadl_3, Q8NI35; experiment: holdup assay; design: key: below the threshold = too weak to quantify, mostly under pKd 3.1 to 4; conditions: plain residues with an end cap or a label only (N-terminal biotin on a linker: ado-ado)
Sequence (Q8NI35 359-469): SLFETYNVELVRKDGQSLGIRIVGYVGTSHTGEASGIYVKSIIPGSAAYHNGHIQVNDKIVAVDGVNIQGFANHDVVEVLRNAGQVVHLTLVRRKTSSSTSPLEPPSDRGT

| Binder | pKd |
| --- | --- |
| FVHPILQSAV [PRKCA, P17252] | below the threshold |

molecular target: T3, HTRA3, P83110; experiment: holdup assay; design: key: below the threshold = too weak to quantify, mostly under pKd 3.1 to 4; conditions: plain residues with an end cap or a label only (N-terminal biotin on a linker: ado-ado)

| Binder | pKd |
| --- | --- |
| FVHPILQSAV [PRKCA, P17252] | below the threshold |

molecular target: T4, FRMPD1, Q5SYB0; experiment: holdup assay; design: key: below the threshold = too weak to quantify, mostly under pKd 3.1 to 4; conditions: plain residues with an end cap or a label only (N-terminal biotin on a linker: ado-ado)

| Binder | pKd |
| --- | --- |
| FVHPILQSAV [PRKCA, P17252] | below the threshold |

molecular target: TJP1_3, Q07157; experiment: holdup assay; design: key: below the threshold = too weak to quantify, mostly under pKd 3.1 to 4; conditions: plain residues with an end cap or a label only (N-terminal biotin on a linker: ado-ado)
Sequence (Q07157 416-512): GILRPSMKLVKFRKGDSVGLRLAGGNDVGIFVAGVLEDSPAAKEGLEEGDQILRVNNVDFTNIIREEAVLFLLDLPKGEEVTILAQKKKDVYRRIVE

| Binder | pKd |
| --- | --- |
| FVHPILQSAV [PRKCA, P17252] | below the threshold |

molecular target: GRIP2_7, Q9C0E4; experiment: holdup assay; design: key: below the threshold = too weak to quantify, mostly under pKd 3.1 to 4; conditions: plain residues with an end cap or a label only (N-terminal biotin on a linker: ado-ado)
Sequence (Q9C0E4 934-1023): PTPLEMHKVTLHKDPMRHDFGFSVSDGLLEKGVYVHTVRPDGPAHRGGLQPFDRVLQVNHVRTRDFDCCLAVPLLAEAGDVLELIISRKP

| Binder | pKd |
| --- | --- |
| FVHPILQSAV [PRKCA, P17252] | below the threshold |

molecular target: IL16_3, Q14005; experiment: holdup assay; design: key: below the threshold = too weak to quantify, mostly under pKd 3.1 to 4; conditions: plain residues with an end cap or a label only (N-terminal biotin on a linker: ado-ado)
Sequence (Q14005 1107-1207): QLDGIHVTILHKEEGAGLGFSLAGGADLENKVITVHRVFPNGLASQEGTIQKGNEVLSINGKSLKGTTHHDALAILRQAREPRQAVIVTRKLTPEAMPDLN

| Binder | pKd |
| --- | --- |
| FVHPILQSAV [PRKCA, P17252] | below the threshold |

molecular target: T5, GRIP1_5, Q9Y3R0; experiment: holdup assay; design: key: below the threshold = too weak to quantify, mostly under pKd 3.1 to 4; conditions: plain residues with an end cap or a label only (N-terminal biotin on a linker: ado-ado)

| Binder | pKd |
| --- | --- |
| FVHPILQSAV [PRKCA, P17252] | below the threshold |

molecular target: T6, TJP3_3, O95049; experiment: holdup assay; design: key: below the threshold = too weak to quantify, mostly under pKd 3.1 to 4; conditions: plain residues with an end cap or a label only (N-terminal biotin on a linker: ado-ado)

| Binder | pKd |
| --- | --- |
| FVHPILQSAV [PRKCA, P17252] | below the threshold |

molecular target: HTRA1, Q92743; experiment: holdup assay; design: key: below the threshold = too weak to quantify, mostly under pKd 3.1 to 4; conditions: plain residues with an end cap or a label only (N-terminal biotin on a linker: ado-ado)
Sequence (Q92743 360-477): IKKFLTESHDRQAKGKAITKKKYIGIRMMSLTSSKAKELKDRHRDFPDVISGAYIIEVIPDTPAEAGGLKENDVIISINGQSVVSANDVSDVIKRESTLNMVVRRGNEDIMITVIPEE

| Binder | pKd |
| --- | --- |
| FVHPILQSAV [PRKCA, P17252] | below the threshold |

molecular target: T7, PDZD2_2, O15018; experiment: holdup assay; design: key: below the threshold = too weak to quantify, mostly under pKd 3.1 to 4; conditions: plain residues with an end cap or a label only (N-terminal biotin on a linker: ado-ado)

| Binder | pKd |
| --- | --- |
| FVHPILQSAV [PRKCA, P17252] | 5.1 |

molecular target: Inadl_5, Q8NI35; experiment: holdup assay; design: key: below the threshold = too weak to quantify, mostly under pKd 3.1 to 4; conditions: plain residues with an end cap or a label only (N-terminal biotin on a linker: ado-ado)
Sequence (Q8NI35 673-780): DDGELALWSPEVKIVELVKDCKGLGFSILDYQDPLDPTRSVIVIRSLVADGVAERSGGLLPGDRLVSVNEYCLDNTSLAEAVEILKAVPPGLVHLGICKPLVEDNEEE

| Binder | pKd |
| --- | --- |
| FVHPILQSAV [PRKCA, P17252] | below the threshold |

molecular target: T8, GRIP1_4, Q9Y3R0; experiment: holdup assay; design: key: below the threshold = too weak to quantify, mostly under pKd 3.1 to 4; conditions: plain residues with an end cap or a label only (N-terminal biotin on a linker: ado-ado)

| Binder | pKd |
| --- | --- |
| FVHPILQSAV [PRKCA, P17252] | below the threshold |

molecular target: FRMPD2_3, Q68DX3; experiment: holdup assay; design: key: below the threshold = too weak to quantify, mostly under pKd 3.1 to 4; conditions: plain residues with an end cap or a label only (N-terminal biotin on a linker: ado-ado)
Sequence (Q68DX3 1073-1166): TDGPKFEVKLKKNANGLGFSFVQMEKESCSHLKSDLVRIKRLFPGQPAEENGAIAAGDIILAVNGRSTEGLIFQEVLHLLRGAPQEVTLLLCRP

| Binder | pKd |
| --- | --- |
| FVHPILQSAV [PRKCA, P17252] | below the threshold |

molecular target: T9, SNTG2, Q9NY99; experiment: holdup assay; design: key: below the threshold = too weak to quantify, mostly under pKd 3.1 to 4; conditions: plain residues with an end cap or a label only (N-terminal biotin on a linker: ado-ado)

| Binder | pKd |
| --- | --- |
| FVHPILQSAV [PRKCA, P17252] | 3.64 |

molecular target: T10, APBA3_1, O96018; experiment: holdup assay; design: key: below the threshold = too weak to quantify, mostly under pKd 3.1 to 4; conditions: plain residues with an end cap or a label only (N-terminal biotin on a linker: ado-ado)

| Binder | pKd |
| --- | --- |
| FVHPILQSAV [PRKCA, P17252] | below the threshold |

molecular target: LIMK2, P53671; experiment: holdup assay; design: key: below the threshold = too weak to quantify, mostly under pKd 3.1 to 4; conditions: plain residues with an end cap or a label only (N-terminal biotin on a linker: ado-ado)
Sequence (P53671 143-248): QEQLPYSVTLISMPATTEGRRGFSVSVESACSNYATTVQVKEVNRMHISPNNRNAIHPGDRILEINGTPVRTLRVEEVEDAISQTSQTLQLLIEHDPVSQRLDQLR

| Binder | pKd |
| --- | --- |
| FVHPILQSAV [PRKCA, P17252] | below the threshold |

molecular target: T11, DLG3_2, Q92796; experiment: holdup assay; design: key: below the threshold = too weak to quantify, mostly under pKd 3.1 to 4; conditions: plain residues with an end cap or a label only (N-terminal biotin on a linker: ado-ado)

| Binder | pKd |
| --- | --- |
| FVHPILQSAV [PRKCA, P17252] | 4.26 |

molecular target: HTRA2, O43464; experiment: holdup assay; design: key: below the threshold = too weak to quantify, mostly under pKd 3.1 to 4; conditions: plain residues with an end cap or a label only (N-terminal biotin on a linker: ado-ado)
Sequence (O43464 355-458): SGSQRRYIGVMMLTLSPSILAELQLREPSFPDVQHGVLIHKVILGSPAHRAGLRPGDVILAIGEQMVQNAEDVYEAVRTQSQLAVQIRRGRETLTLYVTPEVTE

| Binder | pKd |
| --- | --- |
| FVHPILQSAV [PRKCA, P17252] | below the threshold |

molecular target: NHERF4_4, Q86UT5; experiment: holdup assay; design: key: below the threshold = too weak to quantify, mostly under pKd 3.1 to 4; conditions: plain residues with an end cap or a label only (N-terminal biotin on a linker: ado-ado)
Sequence (Q86UT5 464-550): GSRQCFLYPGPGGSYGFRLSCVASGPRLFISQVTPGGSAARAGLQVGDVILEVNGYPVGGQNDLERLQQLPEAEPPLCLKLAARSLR

| Binder | pKd |
| --- | --- |
| FVHPILQSAV [PRKCA, P17252] | below the threshold |
